What was measured:
[1] = target: CSL^F235L (residues 10-436 of human isoform 1, myc/his) (human) (UniProt Q06330)
[2] = target: CSL (residues 10-436 of human isoform 1, myc/his) (human) (UniProt Q06330)
CSL BTD (Homo sapiens) = CSL BTD (Homo sapiens) (UniProt Q06330); conditions: cited from earlier work
[3] = target: CSL (residues 10-436 of human isoform 1, myc/his) (human) (UniProt Q06330); remark: listed apart in the source
[4] = target: CAN (CSL-ANKNLS) fusion protein (human) (UniProt Q06330)
[5] = target: CAN (CSL-ANKNLS) fusion protein (human) (UniProt Q06330); remark: listed apart in the source
[6] = target: CSL (residues 10-436 of human isoform 1, myc/his) (human) (UniProt Q06330); remark: listed apart in the source

NICD* (full-length NICD with xWxP to A4) (domain or fragment)
TP1-luc luciferase reporter in OT11 cells; NICD* co-transfected with CSL^F235L; fold activation [1]: 38 fold
TP1-luc luciferase reporter in OT11 cells; NICD* co-transfected with CSL; fold activation [2]: 4 fold

Notch intracellular domain RAM region RAM (from UniProt P46531)
Kd (CSL BTD (Homo sapiens)): 100 nM

RAM (human Notch1 residues 1758-1878) (from UniProt P46531 1758-1878) (domain or fragment)
TP1-luc luciferase reporter in OT11 cells; RAM and ANKNLS in trans co-transfected with CSL; fold activation [3]: 9 fold
TP1-luc luciferase reporter in OT11 cells; RAM co-transfected with CAN; fold over CAN alone [4]: 6 fold

dominant-negative form of MAML (dnMAML) (domain or fragment)
TP1-luc luciferase reporter in OT11 cells; CAN co-transfected with RAM and 1 to 30 ng dnMAML plasmid; percent of maximal (uninhibited) activation, nearly 0% at 30 ng (% of maximal activation) [5]: 25
TP1-luc luciferase reporter in OT11 cells; CSL co-transfected with … and 1 to 30 ng dnMAML plasmid; percent of maximal (uninhibited) activation, nearly 0% at 30 ng (% of maximal activation) [6]: 30

full-length NICD (human Notch1 intracellular domain) (domain or fragment)
TP1-luc luciferase reporter in OT11 cells; NICD co-transfected with CSL^F235L; fold activation [1]: 94 fold
TP1-luc luciferase reporter in OT11 cells; NICD co-transfected with CSL; fold activation [2]: 100 fold

… (human Notch1 residues 1758-2174) (from UniProt P46531 1758-2174) (domain or fragment)
TP1-luc luciferase reporter in OT11 cells; … co-transfected with CSL; fold over empty vector [3]: 24 fold
